From the supplement of paper PMC10567573
± gives the standard deviation.

Experiment: protein stability index of a GFP-peptide fusion (GPS, HEK-293T) (PSI 1-6); higher = more stable
Details: c terminus: a fixed tail appended
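Note: 24-mer peptide tiles fused after GFP, lentivirally expressed, FACS-sorted into six equal bins by GFP/DsRed ratio, decoded by Illumina sequencing, PSI is the read-weighted mean bin number.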

Sequence | protein stability index (treatment: DMSO) | protein stability index (treatment: MLN4924 1 uM, 8 h)
FSLRVHTGCHKKLGPEARRPRTRW | 2.66 ± 0.28 | 3.06 ± 0.094
HQPPQAGAGDVVLLQRELAQEDSL [LYSMD4] | 5.09 ± 0.13 | 5.04 ± 0.15
YEPLLSRVQAALVWERPARSALWC [RETREG3] | 2.39 ± 0.53 | 2.12 ± 0.22
RRLKQAKEEAQAEIEQYRLQREKE [ATP6V1G1] | 5.47 ± 0.33 | 5.38 ± 0.25
LEPGSADPLANGCQGVSEAAHRLA [PSD2] | 5.22 ± 0.075 | 5.23 ± 0.24
SGRVKRERDREREPEAASSRGSPV [USP39] | 5.12 ± 0.18 | 5.33 ± 0.11
RMIFKLFSQETVMKFVPRYSLVLE [APMAP] | 2.74 ± 0.55 | 2.51 ± 0.37
ADESVLWQLFGPFGAVTNVKVIRD [ELAVL3] | 2.23 ± 0.18 | 2.35 ± 0.33
KFSPDGKYVVSGFDVDHGICIMDA [WDR88] | 2.69 ± 0.21 | 3.13 ± 0.49
SPLCLIPMVTSPREEQQLLASTSK [KCTD13] | 4.1 ± 0.29 | 4.37 ± 0.06
CEFSSERGPRMCRFIRERDRAVND [CDC25B] | 3.51 ± 0.22 | 3.52 ± 0.17
PVTNNLLEKCKTLVSQSNDLSSLR [SPACA9] | 3.04 ± 0.2 | 3.14 ± 0.24
ETDEDEEEGDEQQRLLNTPRRKKL [GMCL1] | 5.6 ± 0.3 | 5.63 ± 0.28
QKNFNNLYGTKGNYTSRVWEYSSS [TRIM29] | 2.31 ± 0.4 | 2.51 ± 0.12
VLIVDWDVHHGQGTQFTFDQDPSV [HDAC6] | 2.32 ± 0.42 | 2.13 ± 0.049
LNEDPLKWWSDRLALFPLLPKVLQ [ZBED1] | 2.2 ± 0.25 | 2.16 ± 0.1
LMTSKPAEVVKILQTMLRQSAFLH [INTS4] | 2.78 ± 0.41 | 2.43 ± 0.29
EREKVTPLMVKGFRDAAEEGGTAV [SEPHS2] | 5.24 ± 0.18 | 5.12 ± 0.16
ELGKGAFSVVRRCMKIPTGQEYAA [CAMK2D] | 2.46 ± 0.21 | 2.2 ± 0.29
WHPAENIIAIAATNNLYIFQDKVN [PPP2R2C] | 2.6 ± 0.48 | 2.44 ± 0.31
KNIVIADFVMSLTFPFKILGDSGL [P2RY14] | 3.04 ± 0.65 | 2.99 ± 0.38
PWVYILLRKAVLKNLYKLASQCCG [PTGFR] | 2.09 ± 0.26 | 2.22 ± 0.45
ALRLEVRAGPDSAGIALYSHEDVC [CARM1] | 2.61 ± 0.64 | 2.55 ± 0.56

Sequence | protein stability index (treatment: DMSO) | protein stability index (treatment: MLN4924 1 uM, 8 h)
VPETIHDELQQSFQKSHNSLQRWE [PRIM1] | 3.88 ± 0.16 | 3.75 ± 0.24
VFKQAKDKVSDGVTKSPEKRSSLP [MAP2] | 4.92 ± 0.16 | 4.93 ± 0.099
EDQTEYLEERRVKEVVKKHSQFIG [HSP90AB1] | 4.11 ± 0.16 | 4.93 ± 0.17
ESSDDDSEEAPSTSGMGFHAPKIG [SDE2] | 5.51 ± 0.23 | 5.41 ± 0.19
KYLVEHKADLEVSNRHGHTCLMIS [FEM1C] | 2.53 ± 0.12 | 2.67 ± 0.23
RQARKKGRHLELANQKLSEKLAAG [CCDC3] | 4.777 ± 0.006 | –
SGSRVRVGFRLCNSTGGDCFYRGY [SCNN1D] | 2.18 ± 0.21 | 2.38 ± 0.49
LEDKLRLLAQARDEAQGACLQQKQ [LRRC45] | 4.49 ± 0.33 | 4.19 ± 0.22
QVYLSHTAWTEACQVEVRLLLAYN [INTS4] | 3.15 ± 0.51 | 3.09 ± 0.19
YAFANVFHGWKYMFGLVIPLGVLQ [SLC2A12] | 3.19 ± 0.62 | 3.11 ± 0.52
IVVHCSAGIGRTGTFCSLDICLAQ [PTPN9] | 3.85 ± 1 | 3.45 ± 0.19
PGKALGPAATMAVELHYEEGSPRN [C2CD2L] | 4.81 ± 0.29 | 4.82 ± 0.21
PQQYMAFLPHHIMVKIFRLLPTKS [FBXO34] | 2.23 ± 0.38 | 2.07 ± 0.39
YPVVVAESMYGDFQEAMTHLQHKL [TENT5D] | 2.49 ± 0.15 | 2.81 ± 0.38
HRKRGSQPPDMASALTDRTSRAPS [RSPH3] | 4.89 ± 0.17 | 4.95 ± 0.18
DMIYVSGGFDGSRRHTSMERYDPN [KLHL12] | 3.85 ± 0.15 | 4 ± 0.3
VLSDINLKKGESECQYYIDKLEYL [NET1] | 2.72 ± 0.18 | 2.94 ± 0.33
AEEKEQLLHNDEYQETMVESTFMY [USP39] | 4.69 ± 0.27 | 4.8 ± 0.2
PLIKATVGLIRNLALCPANHAPLR [CTNNB1] | 2.39 ± 0.47 | 2.55 ± 0.43
DVVCKNQDELRNRSVKVICLGSLA [FAN1] | 2.72 ± 0.26 | 2.98 ± 0.2
KLHEIFRGLHEDLQGVPERLLGTA [VTI1B] | 2.48 ± 0.3 | 2.72 ± 0.74
TAAMRCMCPLYDPNRQLWIELAPL [GAN] | 2.22 ± 0.51 | 2.16 ± 0.55
